{"source": "patent US20020037538A1", "about": "“Compositions, kits, and methods for identification, assessment, prevention, and therapy of psoriasis” (priority 2000, published 2002)", "molecules": {"B1": {"name": "rhIL-11: recombinant human IL-11, experimental immune modulatory cytokine (protein, UniProt P20809 22-199, looked up)", "Interleukin-11": "PGPPPGPPRVSPDPRAELDSTVLLTRSLLADTRQLAAQLRDKFPADGDHNLDSLPTLAMSAGALGALQLPGVLTRLRADLLSYLRHVQWLRRAGGSSLKTLEPELGTLQARLDRLLRRLQLLMSRLALPQPPPDPPAPPLAPPSSAWGGIRAAHAILGGLHLTLDWAVRGLLLLKTRL"}}, "key": {"[1]": {"system": "proinflammatory cytokine production", "conditions": "in part through inhibition of NF-κKB nuclear translocation; Trepicchio et al. (1997); cited from earlier work"}, "psoriasis patients": {"system": "psoriasis patients", "conditions": "Trepicchio et al. (1999); cited from earlier work"}, "[2]": {"system": "marker genes in psoriatic lesional skin", "assay": "GeneChip marker analysis of lesional skin biopsies during rhIL-11 or cyclosporin A treatment (Example 3)", "assay_type": "in vivo, human", "description": "Labeled RNA was prepared from clones containing a T7 RNA polymerase promoter site by incorporating labeled ribonucleotides in an in vitro transcription (IVT) reaction. Either biotin-labeled or fluorescein-labeled UTP and CTP (1:3 labeled to unlabeled) plus unlabeled ATP and GTP were used for the reaction with 2500 U of T7 RNA polymerase. Following the reaction, unincorporated nucleotide triphosphates were removed using a size-selective membrane (Mircrocon-100, Amicon, Beverly, Mass.). The total molar concentration of RNA was based on a measurement of the absorbance at 260 nm. Following quantitation of RNA amounts, RNA was fragmented randomly to an average length of approximately 50 bases by heating at 94° C. in 40 mM Tris-acetate pH 8.1, 100 mM potassium acetate, 30 mM magnesium acetate, for 30 to 40 min. Fragmentation reduces possible interference from RNA secondary structure, and minimizes the effects of multiple interactions with closely spaced probe molecules. For material made directly from cellular RNA, cytoplasmic RNA was extracted from cells by the method of Favaloro et al. ((1980) Methods Enzymol. 65: 718-749), and poly (A) RNA was isolated with an oligo dT selection step (PolyAtract, Promega, Madison, Wis.). […] The total molar concentration of labeled cRNA was determined from the absorbance at 260 nm and assuming an average RNA size of 1000 ribonucleotides. […]\nThe hybridization solutions contained 0.9 M NaCl, 60 mM NaH2PO4, 6 mM EDTA, and 0.005% Triton X-100, adjusted to pH 7.6 (referred to as 6×SSPE-T). […] When biotin-labeled RNA was used, the hybridized RNA was stained with a streptavidin-phycoerythrin conjugate (Molecular Probes, Eugene, Oreg.) prior to reading. […] The arrays were read using a scanning confocal microscope made for Affy metrix by Molecular Dynamics (commercially available through Affymetrix, Santa Clara, Calif.) The scanner uses an argon ion laser as the excitation source, with the emission detected by a photomultiplier tube through either a 530 nm bandpass filter (fluorescein), or a 560 nm longpass filter (phycoerythrin). […]"}, "[3]": {"system": "165 genes differentially expressed between lesional and non-lesional skin", "assay": "Gene chip / self-organizing map analysis of lesional skin over the course of drug treatment (Example 4)", "assay_type": "in vivo, human", "excerpt": "(§1) Patients with extensive plaque psoriasis (>10% body surface area affected) were considered eligible for entry into the study. […] At the start of enrollment, a psoriatic plaque was chosen for weekly assessment of lesion severity scores by the study coordinator. A 6 mm punch biopsy was taken of this lesional skin prior to rhIL-11 or cyclosporin treatment and at weeks 1, 4, 8 and 12 during IL-11 or cyclosporin treatment. In addition, prior to initiation of treatment, a 6 mm punch biopsy was taken from uninvolved skin at a location of the patient's choosing. Biopsies were equally divided for immunohistochemical analysis and for RNA preparation. Normal skin was obtained from healthy volunteers.\nTotal RNA was isolated from 6 mm full thickness skin biopsies using the RNeasy mini kit (Qiagen, Hilden, Germany). 2 μg total RNA was converted to cDNA by priming with an oligo-dT primer containing a T7 RNA polymerase promoter at the 5′ end. RNA was reverse transcribed with 200 units Superscript RT II at 50° C. for 1 hour in 1×first-strand buffer, 10 mM DTT and 0.5 mM each dNTP (Gibco BRL, Gaithersburg, Md.). […] RNA was concentrated and the amount measured using a spectrophotometer. […]"}, "plaque psoriasis": {"system": "plaque psoriasis", "assay": "Response to therapy by clinical and histopathological criteria (Example 4)", "assay_type": "in vivo, human", "conditions": "treated for 8 weeks", "excerpt": "as §1\nSections were reacted with antibodies to CD3, CD8, keratin 16, Ki67, ICAM-1, or HLA-DR and processed for immunohistochemistry as previously described (Trepicchio et al., supra). Computer-assisted image analysis was used to quantify epidermal thickness and the number of CD3+, CD8+, or Ki67+ cells in tissue sections as described. The grading system used to measure clinical disease activity was the PSI score, described above.\nRhIL-11 was administered to patients by a subcutaneous route at either a dose of 5 ug/kg/day or a single 1 mg or 2 mg dose administered once weekly. Cyclopsorin A was administered at a dose of 5 μg/kg/day (Gottlieb et al., supra)."}, "[4]": {"system": "S100A12, HBP17, K16, CCNF, SCYA2, PRKMK3, ID4, CST6 and TNXA mRNA", "assay": "Quantitative RT-PCR of early responding genes in treated patients", "assay_type": "in vivo, human", "conditions": "responding patients but not non-responding patients", "protocol": "Quantitative RT-PCR was performed as previously described (Trepicchio et al., supra). RNA samples from patient biopsies were treated with 10U of RQ1 DNase I (Promega) for 30 minutes at 37° C. […] Sequence-specific amplification was detected as an increased fluorescent signal of 6-FAM during the amplification cycle. Quantitation of gene-specific message levels was based on a comparison of the fluorescent intensity in the unknown mRNA sample to the fluorescent intensity from a standard curve of known mRNA levels. […] Levels of gene-specific messages were graphed as normalized message units as determined from the standard curve. […]\nQuantitative measures of gene expression changes were statistically evaluated using the JMP statistical discovery software package (SAS Institute, Inc., Cary, N.C.). […] Differences between non-lesional to lesional skin were analyzed using 2-tailed paired T-test. […]\nChanges in gene expression levels that precede clinical improvement may identify genes that play a potential causative role in disease progression or may be early markers of clinical efficacy. Quantitative RT-PCR was used to analyze gene expression changes for these early responding genes in a larger patient population. […]"}, "psoriatic plaque": {"system": "psoriatic plaque", "assay": "Psoriasis Severity Index (PSI) score at the lesion biopsy site during treatment (Example 3)", "assay_type": "in vivo, human", "conditions": "for PSI score: seen at weeks 8 and 12", "protocol": "Three subjects with extensive psoriasis (>10% body surface area affected) were treated with […] of rhIL-11 subcutaneously every day for 8 weeks (Trepicchio et al. (1999) J. Clin. Invest. 104:1527-1537). The dose selection of rhIL-11 was based on the outcome of a clinical trial in subjects with Crohn's disease, where biological activity was observed. […] Upon enrollment, a psoriatic plaque was chosen for weekly assessment of lesion severity. […] In addition, before initiation of treatment, a 6-mm punch biopsy was taken from uninvolved skin at a location of the patent's choosing. Biopsies were equally divided for immunohistochemical analysis and for RNA preparation. Global clinical assessment of each subject was based on the Psoriasis Area and Severity Index (PASI) score in each subject before and during therapy as described previously (Gottlieb, et al. (1992) J. Invest. Dermatol. 98:302-309). The grading system used to measure local disease activity at the lesion biopsy site was the Psoriasis Severity Index (PSI). This index grades individual psoriasis lesions for scale, erythema, and induration on a 0- to 6- point scale for each parameter (0, absent, 1, trace, 2, mild, 3, mild to moderate, 4, moderate, 5, moderate to severe, and 6, severe). The final score is the sum of the individual parameters for a range of 0-18 (Fredriksson and Pettersson (1978) Dermatologica 157: 238-244; and Coven et al. (1997) Arch. Dermatol. 133:1514-1522). Histopathological assessment was performed on one-half of the 6-mm punch biopsy. […] Sections were reacted with antibodies to CD3, CD8, K16, Ki67, ICAM-1, or HLA-FR and processed for immunohistochemistry as described previously. Computer-assisted image analysis was used to quantify epidermal thickness and the number of CD3+, CD8+, or Ki67+ cells in tissue sections as described (Gottlieb et al. (1995) Nat. Med. 1:442-447)."}}, "data": [{"molecule": "B1", "values": [{"measurement": "proinflammatory cytokine production", "setting": "[1]", "result": "reduce proinflammatory cytokine production"}, {"measurement": "activity in psoriasis patients", "setting": "psoriasis patients", "result": "improve clinical and histopathological scores"}, {"measurement": "expression levels of the bulk of the markers", "setting": "[2]; Patient #202, rhIL-11, throughout the study", "result": "similarly unchanged"}, {"measurement": "expression of the preponderance of the markers", "setting": "[2]; Patients #203 and 208, rhIL-11, by week 8 compared to the beginning of the study", "result": "decrease in expression at least two-fold"}, {"measurement": "expression of the markers", "setting": "[2]; Patients #203 and 208, rhIL-11, by week 12 compared to the beginning of the study", "result": "nearly all of the markers decreased in expression"}, {"measurement": "differentially regulated genes that returned to normal or uninvolved levels at time points preceding clinical improvement", "setting": "[3]; FIG. 6, Group I", "result": 36, "unit": "genes"}, {"measurement": "levels of expression of 36 genes including HBP17, SCYA2, PRKMK3, GNA15, PHB and MTX", "setting": "[3]; responding patients at week 1 of therapy, not in non-responding patients", "result": "change significantly"}, {"measurement": "patients considered to have responded to therapy", "setting": "plaque psoriasis", "result": "8 out of 15"}, {"measurement": "earliest time at which changes in gene expression were observed", "setting": "[4]", "result": 1, "unit": "week"}, {"measurement": "response to the treatment as assessed by PSI scores", "setting": "psoriatic plaque; Patient #202, rhIL-11", "result": "did not respond to the treatment"}, {"measurement": "PSI scores", "setting": "psoriatic plaque; Patient #202, rhIL-11 treatment, throughout the course of the study", "result": "9-11"}, {"measurement": "PSI score", "setting": "psoriatic plaque; rhIL-11, first value of 'respectively' (Patient #203)", "result": 4}, {"measurement": "PSI score", "setting": "psoriatic plaque; rhIL-11, second value of 'respectively' (Patient #208)", "result": 5}]}]}
